# Measurements from the supplement of paper PMC10567573.
# B1: RSPH3 (parent)
# chain: FIPAKTGKDVATQILEGELFDFDL
# B2: POMT2 (parent)
# chain: VKYNSCADRPFSAPWWFWLSLTGV
# Variants of: B1
# Assay: protein stability index of a GFP-peptide fusion (GPS, HEK-293T) (PSI 1-6); higher = more stable
# Conditions: c terminus: a fixed tail appended
# 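Further: lentivirally expressed fusions sorted by FACS into six bins by GFP to DsRed ratio, PSI derived from sequencing read proportions per bin multiplied by bin number.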
row,Variant,protein stability index
1,FIPAKTGKDVATQILEGELFDFYL [D23Y],2.24
2,FIPAKTGKDVATQILEGELFDFQL [D23Q],1.99
3,FIPAKTGKDVATQILEGELFDFFL [D23F],1.34
4,FIPAKTGKDVATQILEGELFDFLL [D23L],1.98
5,FIPAKTGKDVATQILEGELFDFPL [D23P],2.08
6,FIPAKTGKDVATQILEGELFDFEL [D23E],1.89
7,FIPAKTGKDVATQILEGELFDFTL [D23T],2.24
8,FIPAKTGKDVATQILEGELFDFHL [D23H],1.87
9,FIPAKTGKDVATQILEGELFDFKL [D23K],2.12
10,FIPAKTGKDVATQILEGELFDFWL [D23W],2.51
11,FIPAKTGKDVATQILEGELFDFRL [D23R],1.42
12,FIPAKTGKDVATQILEGELFDFIL [D23I],1.24
13,FIPAKTGKDVATQILEGELFDFML [D23M],1.42
14,FIPAKTGKDVATQILEGELFDFAL [D23A],2.12
15,FIPAKTGKDVATQILEGELFDFCL [D23C],2.08
16,FIPAKTGKDVATQILEGELFDFSL [D23S],2
17,FIPAKTGKDVATQILEGELFDFNL [D23N],1.84
18,FIPAKTGKDVATQILEGELFDFGL [D23G],2.02
19,FIPAKTGKDVATQILEGELFDFVL [D23V],1.59
20,FIPAKTGKDVATQILEGELFDFDV [L24V],1.85
21,FIPAKTGKDVATQILEGELFDFDF [L24F],1.95
22,FIPAKTGKDVATQILEGELFDFDY [L24Y],1.75

row,Variant,protein stability index
1,FIPAKTGKDVATQILEGELFDFDW [L24W],3.71
2,FIPAKTGKDVATQILEGELFDFDC [L24C],2.36
3,FIPAKTGKDVATQILEGELFDFDK [L24K],2.79
4,FIPAKTGKDVATQILEGELFDFDP [L24P],2.47
5,FIPAKTGKDVATQILEGELFDFDA [L24A],2.67
6,FIPAKTGKDVATQILEGELFDFDI [L24I],2
7,FIPAKTGKDVATQILEGELFDFDN [L24N],2.43
8,FIPAKTGKDVATQILEGELFDFDS [L24S],2.36
9,FIPAKTGKDVATQILEGELFDFDT [L24T],2.39
10,FIPAKTGKDVATQILEGELFDFDG [L24G],2.75
11,FIPAKTGKDVATQILEGELFDFDD [L24D],3.04
12,FIPAKTGKDVATQILEGELFDFDH [L24H],2.68
13,FIPAKTGKDVATQILEGELFDFDM [L24M],2.23
14,FIPAKTGKDVATQILEGELFDFDE [L24E],2.78
15,FIPAKTGKDVATQILEGELFDFDR [L24R],2.31
16,FIPAKTGKDVATQILEGELFDFDQ [L24Q],2.7
17,FIPAKTGKDVATQILEGELFDLDL [F22L],1.98
18,FIPAKTGKDVATQILEGELFDDDL [F22D],3.7
19,FIPAKTGKDVATQILEGELFDRDL [F22R],2.42
20,FIPAKTGKDVATQILEGELFDKDL [F22K],2.74
21,FIPAKTGKDVATQILEGELFDHDL [F22H],2.56
22,FIPAKTGKDVATQILEGELFDADL [F22A],2.31

row,Variant,protein stability index
1,FIPAKTGKDVATQILEGELFDTDL [F22T],2.67
2,FIPAKTGKDVATQILEGELFDMDL [F22M],2.54
3,FIPAKTGKDVATQILEGELFDWDL [F22W],1.91
4,FIPAKTGKDVATQILEGELFDSDL [F22S],2.86
5,FIPAKTGKDVATQILEGELFDNDL [F22N],2.87
6,FIPAKTGKDVATQILEGELFDCDL [F22C],1.84
7,FIPAKTGKDVATQILEGELFDEDL [F22E],3.2
8,FIPAKTGKDVATQILEGELFDQDL [F22Q],2.84
9,FIPAKTGKDVATQILEGELFDIDL [F22I],1.68
10,FIPAKTGKDVATQILEGELFDYDL [F22Y],2.12
11,FIPAKTGKDVATQILEGELFDGDL [F22G],2.81
12,FIPAKTGKDVATQILEGELFDVDL [F22V],2.21
13,FIPAKTGKDVATQILEGELFDPDL [F22P],1.82
14,FIPAKTGKDVATQILEGELFWFDL [D21W],3.1
15,FIPAKTGKDVATQILEGELFVFDL [D21V],1.66
16,FIPAKTGKDVATQILEGELFYFDL [D21Y],2.78
17,FIPAKTGKDVATQILEGELFQFDL [D21Q],1.53
18,FIPAKTGKDVATQILEGELFRFDL [D21R],1.8
19,FIPAKTGKDVATQILEGELFSFDL [D21S],2.54
20,FIPAKTGKDVATQILEGELFTFDL [D21T],3.06
21,FIPAKTGKDVATQILEGELFNFDL [D21N],1.53
22,FIPAKTGKDVATQILEGELFPFDL [D21P],2.47

# Variants of: B2
# Assay: as above
# Conditions: c terminus: a fixed tail appended
row,Variant,protein stability index
1,VKYNPCADRPFSAPWWFWLSLTGV [S5P],2.39
2,VKYNACADRPFSAPWWFWLSLTGV [S5A],4.07
3,VKYNDCADRPFSAPWWFWLSLTGV [S5D],4.19
4,VKYNSCADRPFSAPWWFWLSLIGV [T22I],1.56
5,VKYNSCADRPFSAPWWFWLSLAGV [T22A],1.62
6,VKYNSCADRPFSAPWWFWLSLKGV [T22K],2.12
7,VKYNSCADRPFSAPWWFWLSLVGV [T22V],3.31
8,VKYNSCADRPFSAPHWFWLSLTGV [W15H],2.54
9,VKYNSCADRPFSAPEWFWLSLTGV [W15E],3.49
10,VKYNSCADRPFSAPWWFVLSLTGV [W18V],2.56
11,VKYNSCADRPFSAPWWFCLSLTGV [W18C],2.54
12,VKYNSCADRPFSAPWWFALSLTGV [W18A],2.22
13,VKYNSCADRPFSAPWWFYLSLTGV [W18Y],2.04
14,VKYNSCADRPFSAPWWFSLSLTGV [W18S],3.44
15,VKYNSCADRPFSAPWWFTLSLTGV [W18T],3.52
16,VKYNSCADRPFSSPWWFWLSLTGV [A13S],2.06
17,VKYNSCADRPFSRPWWFWLSLTGV [A13R],1
18,VKYNSCADRPFSHPWWFWLSLTGV [A13H],1.18
19,VKYNSCADRPFSEPWWFWLSLTGV [A13E],2.18
20,VKYNSCADRPFSGPWWFWLSLTGV [A13G],2.11
21,VKYNSCARRPFSAPWWFWLSLTGV [D8R],3.03
22,VKYNSCAYRPFSAPWWFWLSLTGV [D8Y],2.29
23,VKYNSCAGRPFSAPWWFWLSLTGV [D8G],2.4
24,VKYNSCAPRPFSAPWWFWLSLTGV [D8P],3.01
25,VKYNSCAWRPFSAPWWFWLSLTGV [D8W],1.26
26,VKYNSCAIRPFSAPWWFWLSLTGV [D8I],3.67
27,VKYNSCASRPFSAPWWFWLSLTGV [D8S],2.54
28,VKYNSCATRPFSAPWWFWLSLTGV [D8T],3.21
